Tests used:
[1] = biological target: T1, fructosyl amino acid oxidase from Phaeosphaeria nodorum (PnFPOX, SEQ ID NO: 1) variant N56A (Parastagonospora nodorum, UniProt Q0UIL6, N56A); test: Oxidase activity kinetics (4AA/TODB/POD), PnFPOX N56A mutant; type: biochemical; conditions: purified enzyme, 25° C., pH 7.0
From the text: (§1) As used herein “oxidase activity” is an enzymatic activity (Vmax) of the fructosyl amino acid oxidase to catalyze oxidation of fructosyl amino acid to generate 2-keto-D-glucose and the corresponding amino acid while utilizing oxygen as an electron acceptor. The oxidase activity may be assayed by measuring the amount of generated H2O2 by any methods known in the art, including by way of non-limiting example, reagents for H2O2 detection such as […] (4-aminoantipyrine/N,N-Bis(4-sulfobutyl)-3-methylaniline disodium salt/horseradish peroxidase) or by Pt electrode. As used herein in the context of the relative or quantitative activity, the oxidase activity is specifically defined to be the mole amount of the substrate (fructosyl amino acid) oxidized per unit time measured by the amount of generated H2O2 at 25° C. in 10 mM PPB, pH 7.0, 1.5 mM TODB, 2 U/ml horseradish peroxidase (POD), and 1.5 mM 4-aminoantipyrine (4AA). The formation of quinoneimine dye may be measured spectrophotometrically at 546 nm.
(§2) Escherichia coli BL21 (DE3) cells harboring expression vectors of N1-1 FAOD (SEQ ID NO: 2) mutants were grown in 150 ml of LB medium containing 50 μg/ml kanamycin at 37° C. After reaching an A660 value of 0.6, 0.3 mM IPTG was added and incubated at 25° C. for an additional 5 hours. The cells were collected by centrifugation and washed twice with 0.85% NaCl.aq. Then, the cells were resuspended in 10 mM Potassium Phosphate Buffer (PPB) pH 7.0 and lysed by ultrasonic homogenizer. The lysate was centrifuged at 10,000×g, 4° C. for 10 min, and the supernatant was centrifuged at 50,000 rpm, 4° C. for 60 min, then the supernatant was dialyzed against 10 mM PPB (pH 7.0). The oxidase activity was assayed at 25° C. in 10 mM PPB, pH 7.0, 1.5 mM TODB, 2 U/ml horseradish peroxidase (POD), and 1.5 mM 4-aminoantipyrine (4AA) in the presence of substrates (0.2, 0.5, 0.75, 1, 2, 5 mM f-^αVal […]). The formation of quinoneimine dye was measured spectrophotometrically at 546 nm. The dehydrogenase activity was assayed at 25° C. in 10 mM PPB (pH 7.0), 0.6 mM DCIP, and 6 mM methoxy PMS (mPMS) in the presence of substrates (0.2, 0.5, 1, 2, 5 mM f-^αVal or 5 mM f-^αVal-His).
(§3) Mutations were introduced using site-directed mutagenesis as in Example 1, and BL21 (DE3) cells were transformed with an expression vector containing wild-type or mutant PnFPOX (SEQ ID NO: 1). The cultured cells were resuspended in 10 mM PPB, pH 7.0, and lysed by sonication. The lysate was centrifuged at 10,000 g at 4° C. for 20 min, and the supernatant was centrifuged at 50,000 rpm at 4° C. for 60 min. The oxidase and dehydrogenase activities were measured as in Example 1.
(§4) BL21 (DE3) transformed with pEPN (pET28a-PnFPOX)-N56A was grown aerobically at 37° C. in LB medium (2 l) containing 50 μg kanamycin ml^−1. […]

[2] = biological target: T1, fructosyl amino acid oxidase from Phaeosphaeria nodorum (PnFPOX, SEQ ID NO: 1) variant N56A; test: Dehydrogenase activity kinetics (mPMS/DCIP), PnFPOX N56A mutant; type: biochemical; conditions: purified enzyme, 25° C., pH 7.0
From the text: (§5) As used herein, “dehydrogenase activity” is an enzymatic activity (Vmax) of the fructosyl amino acid oxidase to catalyze oxidation of fructosyl amino acid to generate 2-keto-D-glucose and the corresponding amino acid while utilizing an electron mediator other than oxygen as an electron acceptor. The dehydrogenase activity may be assayed by measuring the amount of electrons transferred to the mediator using, for example, one of mPMS/DCIP (1-methoxy-5-methylphenazinium methylsulfate/2,6-dichloroindophenol), cPES (trifluoro-acetate-1-(3-carboxy-propoxy)-5-ethyl-phenanzinium, NA BM31—1144 (N,N-bis-(hydroxyethyl)-3-methoxynitrosoaniline hydrochloride, NA BM31—1008 (N,N-bis-hydroxyethyl-4-nitrosoaniline) and N—N-4-dimethyl-nitrosoaniline.
(§6) As used herein in the context of the relative or quantitative activity, the dehydrogenase activity is specifically defined to be the mole amount of the substrate (fructosyl amino acid) oxidized per unit time measured by the amount of electrons transferred to the mediator at 25° C. in 10 mM PPB (pH 7.0), 0.6 mM DCIP, and 6 mM methoxy PMS (mPMS).
as §2
as §3, with “1. […]” for “1.”

[3] = system: CC(C)[C@H](NCC1(O)OC[C@@H](O)[C@@H](O)[C@@H]1O)C(=O)N[C@@H](Cc1c[nH]cn1)C(=O)O; test: Oxidase activity kinetics (4AA/TODB/POD), PnFPOX N56A mutant; type: biochemical, Phaeosphaeria nodorum; conditions: other: purified enzyme, 25° C., pH 7.0
From the text: as §1, §2, §3, §4

[4] = system: CC(C)[C@H](NCC1(O)OC[C@@H](O)[C@@H](O)[C@@H]1O)C(=O)O; test: as above; type: biochemical, Phaeosphaeria nodorum; conditions: other: purified enzyme, 25° C., pH 7.0
From the text: as §1, §2, §3, §4

[5] = system: CC(C)[C@H](NCC1(O)OC[C@@H](O)[C@@H](O)[C@@H]1O)C(=O)N[C@@H](Cc1c[nH]cn1)C(=O)O; test: Dehydrogenase activity kinetics (mPMS/DCIP), PnFPOX N56A mutant; type: biochemical, Phaeosphaeria nodorum; conditions: other: purified enzyme, 25° C., pH 7.0
From the text: as §5, §6, §2
as §3, with “1. […]” for “1.”

[6] = system: CC(C)[C@H](NCC1(O)OC[C@@H](O)[C@@H](O)[C@@H]1O)C(=O)O; test: as above; type: biochemical, Phaeosphaeria nodorum; conditions: other: purified enzyme, 25° C., pH 7.0
From the text: as §5, §6, §2
as §3, with “1. […]” for “1.”

[7] = system: CC(C)[C@H](NCC1(O)OC[C@@H](O)[C@@H](O)[C@@H]1O)C(=O)N[C@@H](Cc1c[nH]cn1)C(=O)O; test: Oxidase activity kinetics (4AA/TODB/POD), PnFPOX wild type; type: biochemical, Phaeosphaeria nodorum; conditions: other: 4AA/TODB/POD, 25° C., pH 7.0
From the text: as §1, §2, §3
(§7) The oxidase and dehydrogenase activities of the N56A mutant FAOD were measured. […]

[8] = system: CC(C)[C@H](NCC1(O)OC[C@@H](O)[C@@H](O)[C@@H]1O)C(=O)O; test: as above; type: biochemical, Phaeosphaeria nodorum; conditions: other: 4AA/TODB/POD, 25° C., pH 7.0
From the text: as §1, §2, §3, §7

[9] = system: CC(C)[C@H](NCC1(O)OC[C@@H](O)[C@@H](O)[C@@H]1O)C(=O)O; test: Dehydrogenase activity kinetics (mPMS/DCIP), PnFPOX wild type; type: biochemical, Phaeosphaeria nodorum; conditions: other: mPMS/DCIP, 25° C., pH 7.0
From the text: As used herein, “dehydrogenase activity” is an enzymatic activity (Vmax) of the fructosyl amino acid oxidase to catalyze oxidation of fructosyl amino acid to generate 2-keto-D-glucose and the corresponding amino acid while utilizing an electron mediator other than oxygen as an electron acceptor. […]
as §6
Escherichia coli BL21 (DE3) cells harboring expression vectors of N1-1 FAOD (SEQ ID NO: 2) mutants were grown in 150 ml of LB medium containing 50 μg/ml kanamycin at 37° C. […] The formation of quinoneimine dye was measured spectrophotometrically at 546 nm. […]
Mutations were introduced using site-directed mutagenesis as in Example 1, and BL21 (DE3) cells were transformed with an expression vector containing wild-type or mutant PnFPOX (SEQ ID NO: 1). […] The oxidase and dehydrogenase activities were measured as in Example 1.
as §7

[10] = substrate: CC(C)[C@H](NCC1(O)OC[C@@H](O)[C@@H](O)[C@@H]1O)C(=O)O; test: Oxidase activity kinetics (4AA/TODB/POD), N1-1 FAOD wild type; type: biochemical, Pichia sp. N1-1; conditions: 25° C., pH 7.0
From the text: as §1, §2
(§8) The recombinant FAOD was purified as follows. First, a water-soluble fraction containing the enzyme was prepared from recombinant Escherichia coli. E. coli containing the expression vector was cultured in 7 L LB medium (37° C., in 10 L fermenter, 50 μg/ml ampicillin), then the expression was induced with IPTG (final concentration: 0.3 mM) at about OD660=0.7 and culture temperature was lowered to 30° C. The cells were suspended in 100 mM PPb (pH 7.0) and disrupted four times using a French press. […]

[11] = substrate: CC(C)[C@H](NCC1(O)OC[C@@H](O)[C@@H](O)[C@@H]1O)C(=O)O; test: Dehydrogenase activity kinetics (mPMS/DCIP), N1-1 FAOD wild type; type: biochemical, Pichia sp. N1-1; conditions: 25° C., pH 7.0
From the text: as §5, §6, §2, §8

[12] = substrate: CC(C)[C@H](NCC1(O)OC[C@@H](O)[C@@H](O)[C@@H]1O)C(=O)O; test: Oxidase activity kinetics (4AA/TODB/POD), N1-1 FAOD N47A mutant; type: biochemical, Pichia sp. N1-1; conditions: 25° C., pH 7.0
From the text: as §1, §2, §8

[13] = substrate: CC(C)[C@H](NCC1(O)OC[C@@H](O)[C@@H](O)[C@@H]1O)C(=O)O; test: Dehydrogenase activity kinetics (mPMS/DCIP), N1-1 FAOD N47A mutant; type: biochemical, Pichia sp. N1-1; conditions: 25° C., pH 7.0
From the text: as §5, §6, §2, §8

T1 sequence (Q0UIL6 whole entry N56A): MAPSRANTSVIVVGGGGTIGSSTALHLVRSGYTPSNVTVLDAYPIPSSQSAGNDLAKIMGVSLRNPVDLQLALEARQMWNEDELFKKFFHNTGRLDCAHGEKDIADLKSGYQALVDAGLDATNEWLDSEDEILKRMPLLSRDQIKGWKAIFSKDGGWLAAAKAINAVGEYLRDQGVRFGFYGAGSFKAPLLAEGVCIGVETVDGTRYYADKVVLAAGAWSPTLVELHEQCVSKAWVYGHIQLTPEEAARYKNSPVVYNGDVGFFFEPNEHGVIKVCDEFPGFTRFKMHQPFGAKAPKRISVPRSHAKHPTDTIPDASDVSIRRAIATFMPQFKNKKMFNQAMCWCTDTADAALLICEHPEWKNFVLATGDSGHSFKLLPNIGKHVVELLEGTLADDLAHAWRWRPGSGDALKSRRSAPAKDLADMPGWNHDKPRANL

CC(C)[C@H](NCC1(O)OC[C@@H](O)[C@@H](O)[C@@H]1O)C(=O)N[C@@H](Cc1cnc[nH]1)C(=O)O (stereo partly shown) [f-αValHis, fructosyl valyl histidine]
Vmax [1]: 1.90 U/mg
Vmax [2]: 3.40 U/mg

fructosyl amino acid oxidase from Phaeosphaeria nodorum (PnFPOX, SEQ ID NO: 1) variant N56A (Parastagonospora nodorum SN15; N56A)
Km [3]: 92 µM
Km [4]: 86 µM
Km [5]: 74 µM
Km [6]: 1600 µM

fructosyl amino acid oxidase from Phaeosphaeria nodorum (PnFPOX), wild type, SEQ ID NO: 1 (Parastagonospora nodorum SN15)
Km [7]: 200 µM
Vmax [7]: 2.97 U/mg
Km [8]: 640 µM
Vmax [8]: 27.6 U/mg
Km [9]: 1100 µM
Vmax [9]: 28.0 U/mg

B1: fructosyl amino acid oxidase from Pichia sp. N1-1 (N1-1 FAOD), wild type, SEQ ID NO: 2 (Pichia sp. N1-1) (protein)
chain: MESIIIVGAGTFGLSTALQLARDGYKNIKCFDKFPVPSEIAAGNDSNKIFHYDYVAPLAKPNSKERLSLEALHLWKTDPVYKPYYHPVGFILAASSDAPLLHDKEYYEELQKNGLRNYRYISTPEEFREYLPILKGPLPNWRGYVLDGDNGWLHARDSLKSAYEECKRLGVEFVFGDDGEIVELLNENGKLTGIRARSGAIFSAQKYVLSSGANAVTLLNFQRQLEGKCFTLAHFKVTDEEAKAFKSLPVLFNAEKGFFFEADENNEIKICNEYPGFTHTNESGESIPLYRMEIPLESALEIRQYLKETMPQFADRPFTKTRICWCTDSPDMQLILCTHPEYTNLIVASGDSGNSFKIMPIIGKYVSKVVTKGDKGLDPEDKECWKWRPETWDKRGQVRWGGRYRVADLNEIEEWVSVENPTPHKLE
notes: 427 aa
Km ([10]; other: crude preparation): 2640 µM
Vmax ([10]; other: crude preparation): 0.71 U/mg
Km ([10]; other: purified enzyme): 4800 µM
Vmax ([10]; other: purified enzyme): 9.3 U/mg
Km ([11]; other: crude preparation): 3220 µM
Vmax ([11]; other: crude preparation): 0.60 U/mg
Km ([11]; other: purified enzyme): 4600 µM
Vmax ([11]; other: purified enzyme): 9.8 U/mg

B2: fructosyl amino acid oxidase from Pichia sp. N1-1 (N1-1 FAOD, SEQ ID NO: 2) variant N47A (Pichia sp. N1-1; N47A) (protein)
chain: MESIIIVGAGTFGLSTALQLARDGYKNIKCFDKFPVPSEIAAGNDSAKIFHYDYVAPLAKPNSKERLSLEALHLWKTDPVYKPYYHPVGFILAASSDAPLLHDKEYYEELQKNGLRNYRYISTPEEFREYLPILKGPLPNWRGYVLDGDNGWLHARDSLKSAYEECKRLGVEFVFGDDGEIVELLNENGKLTGIRARSGAIFSAQKYVLSSGANAVTLLNFQRQLEGKCFTLAHFKVTDEEAKAFKSLPVLFNAEKGFFFEADENNEIKICNEYPGFTHTNESGESIPLYRMEIPLESALEIRQYLKETMPQFADRPFTKTRICWCTDSPDMQLILCTHPEYTNLIVASGDSGNSFKIMPIIGKYVSKVVTKGDKGLDPEDKECWKWRPETWDKRGQVRWGGRYRVADLNEIEEWVSVENPTPHKLE
notes: crude and purified
Km ([12]; other: crude preparation): 1420 µM
Vmax ([12]; other: crude preparation): 0.11 U/mg
Km ([12]; other: purified enzyme): 2200 µM
Vmax ([12]; other: purified enzyme): 1.4 U/mg
Km ([13]; other: crude preparation): 9130 µM
Vmax ([13]; other: crude preparation): 0.82 U/mg
Km ([13]; other: purified enzyme): 6200 µM
Vmax ([13]; other: purified enzyme): 6.0 U/mg
